Test results taken from patent US20240190962A1 (IMMUNOWAKE, published 2024).

Legend:
[1] = target: T1, human IL-2 receptor (IL-2Rα, IL-2Rβ, IL-2Rγ) (human, UniProt P01589 22-272; P14784 27-551; P31785 23-369); experiment: cell-based or functional assay
T1 sequence (looked up) 1: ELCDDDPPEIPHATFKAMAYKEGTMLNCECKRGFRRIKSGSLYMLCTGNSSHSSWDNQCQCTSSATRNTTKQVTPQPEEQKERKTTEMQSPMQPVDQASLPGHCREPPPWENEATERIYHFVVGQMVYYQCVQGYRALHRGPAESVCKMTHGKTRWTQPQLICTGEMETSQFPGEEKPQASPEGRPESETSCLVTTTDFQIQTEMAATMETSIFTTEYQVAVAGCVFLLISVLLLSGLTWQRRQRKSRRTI
T1 sequence (looked up) 2: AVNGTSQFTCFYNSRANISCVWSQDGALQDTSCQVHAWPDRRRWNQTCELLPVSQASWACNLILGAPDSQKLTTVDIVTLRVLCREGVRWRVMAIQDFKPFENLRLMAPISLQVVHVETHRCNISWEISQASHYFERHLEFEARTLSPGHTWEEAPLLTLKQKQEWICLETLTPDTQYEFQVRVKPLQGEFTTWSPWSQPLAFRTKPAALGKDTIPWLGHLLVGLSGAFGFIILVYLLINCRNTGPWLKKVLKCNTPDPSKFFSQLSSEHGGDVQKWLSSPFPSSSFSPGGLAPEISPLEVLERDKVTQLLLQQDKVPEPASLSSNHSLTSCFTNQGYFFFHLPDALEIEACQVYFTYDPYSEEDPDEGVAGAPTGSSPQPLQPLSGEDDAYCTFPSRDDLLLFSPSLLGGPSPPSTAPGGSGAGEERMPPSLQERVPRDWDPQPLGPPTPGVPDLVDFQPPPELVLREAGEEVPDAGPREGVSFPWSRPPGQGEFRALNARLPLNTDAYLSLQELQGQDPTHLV
T1 sequence (looked up) 3: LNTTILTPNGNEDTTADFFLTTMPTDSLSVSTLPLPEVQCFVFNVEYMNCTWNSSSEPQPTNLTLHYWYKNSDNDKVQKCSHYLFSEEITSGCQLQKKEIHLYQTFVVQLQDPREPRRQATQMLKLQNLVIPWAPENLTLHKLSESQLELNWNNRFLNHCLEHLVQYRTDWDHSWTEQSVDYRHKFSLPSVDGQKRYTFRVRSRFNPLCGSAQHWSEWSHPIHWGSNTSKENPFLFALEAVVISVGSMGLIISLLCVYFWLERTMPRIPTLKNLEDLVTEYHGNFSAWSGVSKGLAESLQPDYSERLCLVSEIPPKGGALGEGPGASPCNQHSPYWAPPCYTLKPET

[2] = target: human IL-12 receptor complex (IL-12Rβ1, IL-12Rβ2) (human, UniProt P42701 24-662; Q99665 24-862); experiment: cell-based or functional assay
Chain of human IL-12 receptor complex (IL-12Rβ1, IL-12Rβ2) (Q99665 24-862, chain 2 of 2, other chains not shown): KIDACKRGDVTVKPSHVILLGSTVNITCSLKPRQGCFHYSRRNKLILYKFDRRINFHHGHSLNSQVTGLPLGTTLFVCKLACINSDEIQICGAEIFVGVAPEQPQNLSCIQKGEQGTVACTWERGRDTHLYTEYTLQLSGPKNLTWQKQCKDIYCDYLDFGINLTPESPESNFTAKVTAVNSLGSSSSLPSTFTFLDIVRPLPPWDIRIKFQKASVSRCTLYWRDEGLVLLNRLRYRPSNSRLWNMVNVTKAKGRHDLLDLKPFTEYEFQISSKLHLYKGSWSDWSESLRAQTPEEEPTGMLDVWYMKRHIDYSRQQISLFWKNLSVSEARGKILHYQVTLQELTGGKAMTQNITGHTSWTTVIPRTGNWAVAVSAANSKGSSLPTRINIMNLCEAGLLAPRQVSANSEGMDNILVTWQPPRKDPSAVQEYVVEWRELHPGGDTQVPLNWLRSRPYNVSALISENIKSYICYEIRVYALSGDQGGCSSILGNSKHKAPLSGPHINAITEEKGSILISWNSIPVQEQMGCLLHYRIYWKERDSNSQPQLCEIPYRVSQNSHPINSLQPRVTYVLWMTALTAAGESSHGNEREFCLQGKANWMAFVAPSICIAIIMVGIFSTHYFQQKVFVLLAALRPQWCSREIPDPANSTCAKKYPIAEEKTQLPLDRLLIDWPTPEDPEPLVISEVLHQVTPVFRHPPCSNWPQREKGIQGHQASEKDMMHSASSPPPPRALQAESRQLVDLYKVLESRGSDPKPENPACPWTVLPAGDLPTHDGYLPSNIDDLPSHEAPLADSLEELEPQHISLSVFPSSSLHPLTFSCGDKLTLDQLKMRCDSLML

B1: PD-L1(mut2)-Fc/IL-12(E59A/F60A) (Fc fusion)
chain 1: FTVTVPKDLYVVEYGSNMTIECKFPVEKQLDLAALQVYWMMEDKNIIQFVHGEEDLKVQHSSYRQRARLLKDQLSLGNAALQITDVKLQDAGVYTCLIAYKGADYKRITVKVNAPYNKINQRILVVDPVTSEHELTCQAEGYPKAEVIWTSSDHQVLSGKTTTTNSKREEKLFNVTSTLRINTTTNEIFYCTFRRLDPEENHTAELVIPELPLAHPPNERGGGGSGGGDKTHTCPPCPAPEDEGGPSVFLFPPKPKDTLMISRTPEVTCVVVDVSHEDPEVKFNWYVDGVEVHNAKTKPREEQYNSTYRVVSVLTVLHQDWLNGKEYKCKVSNKALPAPIEKTISKAKGQPREPQVYVYPPSREEMTKNQVSLTCLVKGFYPSDIAVEWESNGQPENNYKTTPPVLDEDGSFALVSKLTVDKSRWQQGNVFSCSVMHEALHNHYTQKSLSLSPGKGGGGSGGGIWELKKDVYVVELDWYPDAPGEMVVLTCDTPEEDGITWTLDQSSEVLGSGKTLTIQVKAAGDAGQYTCHKGGEVLSHSLLLLHKKEDGIWSTDILKDQKEPKNKTFLRCEAKNYSGRFTCWWLTTISTDLTFSVKSSRGSSDPQGVTCGAATLSAERVRGDNKEYEYSVECQEDSACPAAEESLPIEVMVDAVHKLKYENYTSSFFIRDIIKPDPPKNLQLKPLKNSRQVEVSWEYPDTWSTPHSYFSLTFCVQVQGKSKREKKDRVFTDKTSATVICRKNASISVRAQDRYYSSSWSEWASVPCSGGGGSGGGSGGGGSRNLPVATPDPGMFPCLHHSQNLLRAVSNMLQKARQTLEFYPCTSEEIDHEDITKDKTSTVEACLPLELTKNESCLNSRETSFITNGSCLASRKTSFMMALCLSSIYEDLKMYQVEFKTMNAKLLMDPKRQIFLDQNMLAVIDELMQALNFNSETVPQKSSLEEPDFYKTKIKLCILLHAFRIRAVTIDRVMSYLNAS
chain 2: FTVTVPKDLYVVEYGSNMTIECKFPVEKQLDLAALQVYWMMEDKNIIQFVHGEEDLKVQHSSYRQRARLLKDQLSLGNAALQITDVKLQDAGVYTCLIAYKGADYKRITVKVNAPYNKINQRILVVDPVTSEHELTCQAEGYPKAEVIWTSSDHQVLSGKTTTTNSKREEKLFNVTSTLRINTTTNEIFYCTFRRLDPEENHTAELVIPELPLAHPPNERGGGGSGGGDKTHTCPPCPAPEKKGGPSVFLFPPKPKDTLMISRTPEVTCVVVDVSHEDPEVKFNWYVDGVEVHNAKTKPREEQYNSTYRVVSVLTVLHQDWLNGKEYKCKVSNKALPAPIEKTISKAKGQPREPQVYVLPPSREEMTKNQVSLLCLVKGFYPSDIAVEWESNGQPENRYMTWPPVLDSDGSFFLYSKLTVDKSRWQQGNVFSCSVMHEALHNHYTQKSLSLSPGK
[1]
  IL-2 biological activity, HEK-IL-2: < 0.1%
  IL-2 biological activity, HEK-IL-2-PD-1: < 0.1%
[2]
  IL-12 biological activity, HEK-IL-12: 1%
  IL-12 biological activity, HEK-IL-12-PD-1: 25%

B2: IL-2(L18R/Q22E/R38D/K43E/E61R)/PD-L1(mut2)-Fc/IL-12(E59A/F60A) (Fc fusion)
chain 1: FTVTVPKDLYVVEYGSNMTIECKFPVEKQLDLAALQVYWMMEDKNIIQFVHGEEDLKVQHSSYRQRARLLKDQLSLGNAALQITDVKLQDAGVYTCLIAYKGADYKRITVKVNAPYNKINQRILVVDPVTSEHELTCQAEGYPKAEVIWTSSDHQVLSGKTTTTNSKREEKLFNVTSTLRINTTTNEIFYCTFRRLDPEENHTAELVIPELPLAHPPNERGGGGSGGGDKTHTCPPCPAPEDEGGPSVFLFPPKPKDTLMISRTPEVTCVVVDVSHEDPEVKFNWYVDGVEVHNAKTKPREEQYNSTYRVVSVLTVLHQDWLNGKEYKCKVSNKALPAPIEKTISKAKGQPREPQVYVYPPSREEMTKNQVSLTCLVKGFYPSDIAVEWESNGQPENNYKTTPPVLDEDGSFALVSKLTVDKSRWQQGNVFSCSVMHEALHNHYTQKSLSLSPGKGGGGSGGGIWELKKDVYVVELDWYPDAPGEMVVLTCDTPEEDGITWTLDQSSEVLGSGKTLTIQVKAAGDAGQYTCHKGGEVLSHSLLLLHKKEDGIWSTDILKDQKEPKNKTFLRCEAKNYSGRFTCWWLTTISTDLTFSVKSSRGSSDPQGVTCGAATLSAERVRGDNKEYEYSVECQEDSACPAAEESLPIEVMVDAVHKLKYENYTSSFFIRDIIKPDPPKNLQLKPLKNSRQVEVSWEYPDTWSTPHSYFSLTFCVQVQGKSKREKKDRVFTDKTSATVICRKNASISVRAQDRYYSSSWSEWASVPCSGGGGSGGGSGGGGSRNLPVATPDPGMFPCLHHSQNLLRAVSNMLQKARQTLEFYPCTSEEIDHEDITKDKTSTVEACLPLELTKNESCLNSRETSFITNGSCLASRKTSFMMALCLSSIYEDLKMYQVEFKTMNAKLLMDPKRQIFLDQNMLAVIDELMQALNFNSETVPQKSSLEEPDFYKTKIKLCILLHAFRIRAVTIDRVMSYLNAS
chain 2: FTVTVPKDLYVVEYGSNMTIECKFPVEKQLDLAALQVYWMMEDKNIIQFVHGEEDLKVQHSSYRQRARLLKDQLSLGNAALQITDVKLQDAGVYTCLIAYKGADYKRITVKVNAPYNKINQRILVVDPVTSEHELTCQAEGYPKAEVIWTSSDHQVLSGKTTTTNSKREEKLFNVTSTLRINTTTNEIFYCTFRRLDPEENHTAELVIPELPLAHPPNERGGGSGAPTSSSTKKTQLQLEHLRLDLEMILNGINNYKNPKLTDMLTFEFYMPKKATELKHLQCLERELKPLEEVLNLAQSKNFHLRPRDLISNINVIVLELKGSETTFMCEYADETATIVEFLNRWITFCQSIISTLTGGGGSGGGDKTHTCPPCPAPEKKGGPSVFLFPPKPKDTLMISRTPEVTCVVVDVSHEDPEVKFNWYVDGVEVHNAKTKPREEQYNSTYRVVSVLTVLHQDWLNGKEYKCKVSNKALPAPIEKTISKAKGQPREPQVYVLPPSREEMTKNQVSLLCLVKGFYPSDIAVEWESNGQPENRYMTWPPVLDSDGSFFLYSKLTVDKSRWQQGNVFSCSVMHEALHNHYTQKSLSLSPGK
[1]
  IL-2 biological activity, HEK-IL-2: 3%
  IL-2 biological activity, HEK-IL-2-PD-1: 32%
[2]
  IL-12 biological activity, HEK-IL-12: 2%
  IL-12 biological activity, HEK-IL-12-PD-1: 27%

B3: IL-2(R38D/K43E/E61R/Q126T)/PD-L1(mut2)-Fc/IL-12(E59A/F60A) (Fc fusion)
chain 1: FTVTVPKDLYVVEYGSNMTIECKFPVEKQLDLAALQVYWMMEDKNIIQFVHGEEDLKVQHSSYRQRARLLKDQLSLGNAALQITDVKLQDAGVYTCLIAYKGADYKRITVKVNAPYNKINQRILVVDPVTSEHELTCQAEGYPKAEVIWTSSDHQVLSGKTTTTNSKREEKLFNVTSTLRINTTTNEIFYCTFRRLDPEENHTAELVIPELPLAHPPNERGGGGSGGGDKTHTCPPCPAPEDEGGPSVFLFPPKPKDTLMISRTPEVTCVVVDVSHEDPEVKFNWYVDGVEVHNAKTKPREEQYNSTYRVVSVLTVLHQDWLNGKEYKCKVSNKALPAPIEKTISKAKGQPREPQVYVYPPSREEMTKNQVSLTCLVKGFYPSDIAVEWESNGQPENNYKTTPPVLDEDGSFALVSKLTVDKSRWQQGNVFSCSVMHEALHNHYTQKSLSLSPGKGGGGSGGGIWELKKDVYVVELDWYPDAPGEMVVLTCDTPEEDGITWTLDQSSEVLGSGKTLTIQVKAAGDAGQYTCHKGGEVLSHSLLLLHKKEDGIWSTDILKDQKEPKNKTFLRCEAKNYSGRFTCWWLTTISTDLTFSVKSSRGSSDPQGVTCGAATLSAERVRGDNKEYEYSVECQEDSACPAAEESLPIEVMVDAVHKLKYENYTSSFFIRDIIKPDPPKNLQLKPLKNSRQVEVSWEYPDTWSTPHSYFSLTFCVQVQGKSKREKKDRVFTDKTSATVICRKNASISVRAQDRYYSSSWSEWASVPCSGGGGSGGGSGGGGSRNLPVATPDPGMFPCLHHSQNLLRAVSNMLQKARQTLEFYPCTSEEIDHEDITKDKTSTVEACLPLELTKNESCLNSRETSFITNGSCLASRKTSFMMALCLSSIYEDLKMYQVEFKTMNAKLLMDPKRQIFLDQNMLAVIDELMQALNFNSETVPQKSSLEEPDFYKTKIKLCILLHAFRIRAVTIDRVMSYLNAS
chain 2: FTVTVPKDLYVVEYGSNMTIECKFPVEKQLDLAALQVYWMMEDKNIIQFVHGEEDLKVQHSSYRQRARLLKDQLSLGNAALQITDVKLQDAGVYTCLIAYKGADYKRITVKVNAPYNKINQRILVVDPVTSEHELTCQAEGYPKAEVIWTSSDHQVLSGKTTTTNSKREEKLFNVTSTLRINTTTNEIFYCTFRRLDPEENHTAELVIPELPLAHPPNERGGGSGAPTSSSTKKTQLQLEHLLLDLQMILNGINNYKNPKLTDMLTFEFYMPKKATELKHLQCLERELKPLEEVLNLAQSKNFHLRPRDLISNINVIVLELKGSETTFMCEYADETATIVEFLNRWITFCTSIISTLTGGGGSGGGDKTHTCPPCPAPEKKGGPSVFLFPPKPKDTLMISRTPEVTCVVVDVSHEDPEVKFNWYVDGVEVHNAKTKPREEQYNSTYRVVSVLTVLHQDWLNGKEYKCKVSNKALPAPIEKTISKAKGQPREPQVYVLPPSREEMTKNQVSLLCLVKGFYPSDIAVEWESNGQPENRYMTWPPVLDSDGSFFLYSKLTVDKSRWQQGNVFSCSVMHEALHNHYTQKSLSLSPGK
[1]
  IL-2 biological activity, HEK-IL-2: 3%
  IL-2 biological activity, HEK-IL-2-PD-1: 31%
[2]
  IL-12 biological activity, HEK-IL-12: 1%
  IL-12 biological activity, HEK-IL-12-PD-1: 30%
